We go through one molecule from PMC3328386 (The Journal of Cell Biology, 2012).

One assay deals with recombinant SUMO1 (UniProt P63165 1-97). Briefly: ITC. A general note: ITC needs no label: the signal is the heat of the interaction.
The next assay deals with recombinant SUMO2 (UniProt P61956 1-95). Briefly: ITC.
Chain of recombinant SUMO2 (P61956 whole entry): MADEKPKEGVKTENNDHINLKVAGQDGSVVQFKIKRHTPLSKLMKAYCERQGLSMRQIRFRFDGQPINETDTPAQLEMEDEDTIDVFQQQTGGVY

Chain of recombinant SUMO1 (P63165 1-97): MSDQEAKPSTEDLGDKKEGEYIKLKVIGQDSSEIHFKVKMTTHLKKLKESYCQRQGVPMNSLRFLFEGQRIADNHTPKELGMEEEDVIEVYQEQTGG

B1: recombinant HERC2 ZZ domain (amino acids 2702–2755), WT (domain or fragment)
chain: IHPGVTCDGCQMFPINGSRFKCRNCDDFDFCETCFKTKKHNTRHTFGRINEPGQ
B1: the figures for the Kd in the assay with recombinant SUMO1 and with recombinant SUMO2 were approximately 3 µM and approximately 60 µM, respectively.
